Assay results reported in article PMC10397247.

Key:
Assay in all cases: two-hybrid library CCmax;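 further: natural log of median RNA to DNA barcode read ratio; higher means stronger binding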
4H347-AA = biological target: T1, 4H347-AA; details: mean of both orientations
T1 chain: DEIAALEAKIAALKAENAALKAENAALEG

4H2592-AA = biological target: T2, 4H2592-AA; details: mean of both orientations
T2 chain: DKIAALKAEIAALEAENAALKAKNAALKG

4H3340-AA = biological target: T3, 4H3340-AA; details: mean of both orientations
T3 chain: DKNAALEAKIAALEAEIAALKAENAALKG

4H3493-AA = biological target: T4, 4H3493-AA
T4 chain: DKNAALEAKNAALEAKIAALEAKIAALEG

4H688-AA = biological target: T5, 4H688-AA; details: mean of both orientations
T5 chain: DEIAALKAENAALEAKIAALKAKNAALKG

4H963-AA = biological target: T6, 4H963-AA; details: mean of both orientations
T6 chain: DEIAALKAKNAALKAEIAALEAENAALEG

4H376-AA = biological target: T7, 4H376-AA; details: mean of both orientations
T7 chain: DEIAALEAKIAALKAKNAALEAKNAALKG

4H406-AA = biological target: T8, 4H406-AA; details: mean of both orientations
T8 chain: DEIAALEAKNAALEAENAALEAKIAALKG

4H2504-AA = biological target: T9, 4H2504-AA; details: mean of both orientations
T9 chain: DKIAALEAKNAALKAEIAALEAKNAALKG

4H2774-AA = biological target: T10, 4H2774-AA; details: mean of both orientations
T10 chain: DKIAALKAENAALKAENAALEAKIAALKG

4H2611-AA = biological target: T11, 4H2611-AA; details: mean of both orientations
T11 chain: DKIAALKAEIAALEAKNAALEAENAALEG

4H3001-AA = biological target: T12, 4H3001-AA; details: mean of both orientations
T12 chain: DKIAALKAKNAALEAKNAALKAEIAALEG

4H249-AA = biological target: T13, 4H249-AA; details: mean of both orientations
T13 chain: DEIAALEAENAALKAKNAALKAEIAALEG

4H2219-AA = biological target: T14, 4H2219-AA
T14 chain: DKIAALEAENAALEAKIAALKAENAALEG

4H3381-AA = biological target: T15, 4H3381-AA; details: mean of both orientations
T15 chain: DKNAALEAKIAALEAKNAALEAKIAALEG

4H2837-AA = biological target: T16, 4H2837-AA; details: mean of both orientations
T16 chain: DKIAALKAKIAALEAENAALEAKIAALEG

4H335-AA = biological target: T17, 4H335-AA; details: mean of both orientations
T17 chain: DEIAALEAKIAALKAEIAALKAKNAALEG

4H3606-AA = biological target: T18, 4H3606-AA; details: mean of both orientations
T18 chain: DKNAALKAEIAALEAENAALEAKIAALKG

4H429-AA = biological target: T19, 4H429-AA
T19 chain: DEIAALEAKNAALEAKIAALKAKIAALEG

4H3343-AA = biological target: T20, 4H3343-AA; details: mean of both orientations
T20 chain: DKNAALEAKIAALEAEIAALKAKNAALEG

4H1324-AA = biological target: T21, 4H1324-AA; details: mean of both orientations
T21 chain: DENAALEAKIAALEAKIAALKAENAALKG

4H1352-AA = biological target: T22, 4H1352-AA; details: mean of both orientations
T22 chain: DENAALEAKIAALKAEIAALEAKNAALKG

4H3427-AA = biological target: T23, 4H3427-AA; details: mean of both orientations
T23 chain: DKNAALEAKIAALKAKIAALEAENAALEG

4H2165-AA = biological target: T24, 4H2165-AA; details: mean of both orientations
T24 chain: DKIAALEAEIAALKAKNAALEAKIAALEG

4H1867-AA = biological target: T25, 4H1867-AA; details: mean of both orientations
T25 chain: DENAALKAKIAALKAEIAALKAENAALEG

4H2277-AA = biological target: T26, 4H2277-AA; details: mean of both orientations
T26 chain: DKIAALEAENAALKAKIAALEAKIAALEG

4H3844-AA = biological target: T27, 4H3844-AA; details: mean of both orientations
T27 chain: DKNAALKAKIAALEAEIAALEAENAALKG

4H2575-AA = biological target: T28, 4H2575-AA; details: mean of both orientations
T28 chain: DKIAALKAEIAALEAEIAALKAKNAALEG

4H2151-AA = biological target: T29, 4H2151-AA; details: mean of both orientations
T29 chain: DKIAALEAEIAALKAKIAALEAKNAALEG

4H1636-AA = biological target: T30, 4H1636-AA; details: mean of both orientations
T30 chain: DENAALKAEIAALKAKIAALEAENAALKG

4H717-AA = biological target: T31, 4H717-AA; details: mean of both orientations
T31 chain: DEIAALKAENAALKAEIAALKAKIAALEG

4H342-AA = biological target: T32, 4H342-AA; details: mean of both orientations
T32 chain: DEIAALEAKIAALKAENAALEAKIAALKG

4H1401-AA = biological target: T33, 4H1401-AA; details: mean of both orientations
T33 chain: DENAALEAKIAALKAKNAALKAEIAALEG

4H566-AA = biological target: T34, 4H566-AA; details: mean of both orientations
T34 chain: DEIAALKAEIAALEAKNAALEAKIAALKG

4H2466-AA = biological target: T35, 4H2466-AA; details: mean of both orientations
T35 chain: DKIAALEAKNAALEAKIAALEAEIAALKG

4H2883-AA = biological target: T36, 4H2883-AA; details: mean of both orientations
T36 chain: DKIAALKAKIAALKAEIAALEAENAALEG

4H3627-AA = biological target: T37, 4H3627-AA; details: mean of both orientations
T37 chain: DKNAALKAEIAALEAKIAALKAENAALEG

4H1552-AA = biological target: T38, 4H1552-AA; details: mean of both orientations
T38 chain: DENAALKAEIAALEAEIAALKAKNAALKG

4H2393-AA = biological target: T39, 4H2393-AA; details: mean of both orientations
T39 chain: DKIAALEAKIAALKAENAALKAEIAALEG

4H794-AA = biological target: T40, 4H794-AA; details: mean of both orientations
T40 chain: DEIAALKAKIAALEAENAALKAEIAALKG

4H906-AA = biological target: T41, 4H906-AA; details: mean of both orientations
T41 chain: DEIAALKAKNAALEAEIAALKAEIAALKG

4H881-AA = biological target: T42, 4H881-AA; details: mean of both orientations
T42 chain: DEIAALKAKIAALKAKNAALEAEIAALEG

4H2642-AA = biological target: T43, 4H2642-AA; details: mean of both orientations
T43 chain: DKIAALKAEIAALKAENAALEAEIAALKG

4H317-AA = biological target: T44, 4H317-AA; details: mean of both orientations
T44 chain: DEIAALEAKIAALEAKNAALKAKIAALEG

4H2949-AA = biological target: T45, 4H2949-AA; details: mean of both orientations
T45 chain: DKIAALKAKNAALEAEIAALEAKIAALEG

4H454-AA = biological target: T46, 4H454-AA; details: mean of both orientations
T46 chain: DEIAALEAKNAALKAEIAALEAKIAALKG

4H2078-AA = biological target: T47, 4H2078-AA; details: mean of both orientations
T47 chain: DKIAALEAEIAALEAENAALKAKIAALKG

4H2754-AA = biological target: T48, 4H2754-AA; details: mean of both orientations
T48 chain: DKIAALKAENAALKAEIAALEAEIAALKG

4H780-AA = biological target: T49, 4H780-AA; details: mean of both orientations
T49 chain: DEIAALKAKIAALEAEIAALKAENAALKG

4H678-AA = biological target: T50, 4H678-AA; details: mean of both orientations
T50 chain: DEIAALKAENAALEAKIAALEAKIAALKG

4H2190-AA = biological target: T51, 4H2190-AA; details: mean of both orientations
T51 chain: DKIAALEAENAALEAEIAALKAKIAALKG

4H2944-AA = biological target: T52, 4H2944-AA; details: mean of both orientations
T52 chain: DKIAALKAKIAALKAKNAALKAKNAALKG

4H2729-AA = biological target: T53, 4H2729-AA; details: mean of both orientations
T53 chain: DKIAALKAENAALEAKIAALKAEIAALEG

4H605-AA = biological target: T54, 4H605-AA; details: mean of both orientations
T54 chain: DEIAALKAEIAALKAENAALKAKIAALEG

4H3655-AA = biological target: T55, 4H3655-AA; details: mean of both orientations
T55 chain: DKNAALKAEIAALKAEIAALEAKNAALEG

4H2505-AA = biological target: T56, 4H2505-AA; details: mean of both orientations
T56 chain: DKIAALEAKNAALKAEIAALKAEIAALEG

4H2617-AA = biological target: T57, 4H2617-AA; details: mean of both orientations
T57 chain: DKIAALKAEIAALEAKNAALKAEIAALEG

4H48-AA = biological target: T58, 4H48-AA
T58 chain: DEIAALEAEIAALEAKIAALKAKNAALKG

4H234-AA = biological target: T59, 4H234-AA; details: mean of both orientations
T59 chain: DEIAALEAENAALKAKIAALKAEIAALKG

4H993-AA = biological target: T60, 4H993-AA; details: mean of both orientations
T60 chain: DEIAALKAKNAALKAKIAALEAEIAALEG

4H3921-AA = biological target: T61, 4H3921-AA; details: mean of both orientations
T61 chain: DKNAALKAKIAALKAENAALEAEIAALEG

4H122-AA = biological target: T62, 4H122-AA
T62 chain: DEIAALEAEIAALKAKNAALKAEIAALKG

4H3112-AA = biological target: T63, 4H3112-AA; details: mean of both orientations
T63 chain: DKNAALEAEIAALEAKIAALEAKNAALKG

4H2354-AA = biological target: T64, 4H2354-AA; details: mean of both orientations
T64 chain: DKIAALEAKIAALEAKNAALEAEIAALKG

B1: 4H2219-AA (peptide)
chain: DKIAALEAENAALEAKIAALKAENAALEG
interaction score (4H347-AA): -1.36
interaction score (4H2592-AA): -0.491
interaction score (4H3340-AA): -1.39
interaction score (4H3493-AA): -1.56
interaction score (4H688-AA): -0.493
interaction score (4H963-AA): 0.45
interaction score (4H376-AA): -1.64
interaction score (4H406-AA): -1.81
interaction score (4H2504-AA): 2.21
interaction score (4H2774-AA): -0.727
interaction score (4H2611-AA): -1.33
interaction score (4H3001-AA): -0.483
interaction score (4H249-AA): -1.35
interaction score (4H2219-AA): -1.21
interaction score (4H3381-AA): -1.13

B2: 4H122-AA (peptide)
chain: DEIAALEAEIAALKAKNAALKAEIAALKG
interaction score (4H2837-AA): 2.11
interaction score (4H335-AA): -1.07
interaction score (4H3606-AA): 2.36
interaction score (4H429-AA): -0.548
interaction score (4H3343-AA): -1.31
interaction score (4H1324-AA): -1.09
interaction score (4H1352-AA): -1.3
interaction score (4H3427-AA): -0.449
interaction score (4H2165-AA): -0.0868
interaction score (4H1867-AA): 1.01
interaction score (4H2277-AA): -1.29
interaction score (4H3844-AA): -0.909
interaction score (4H2575-AA): -0.393
interaction score (4H2151-AA): -1.58
interaction score (4H1636-AA): -1.44
interaction score (4H717-AA): -1.17
interaction score (4H342-AA): 1.76
interaction score (4H1401-AA): -1.2
interaction score (4H566-AA): 1.5
interaction score (4H2466-AA): 0.13
interaction score (4H2883-AA): 0.209
interaction score (4H3627-AA): -1.12
interaction score (4H1552-AA): -1.07
interaction score (4H2393-AA): 1.93
interaction score (4H794-AA): 1.48
interaction score (4H906-AA): -1.43
interaction score (4H881-AA): 1.43
interaction score (4H2642-AA): 1.83
interaction score (4H317-AA): -1.2
interaction score (4H2949-AA): -0.323
interaction score (4H454-AA): -0.403
interaction score (4H2078-AA): 2.3
interaction score (4H2754-AA): 0.606
interaction score (4H780-AA): -1.74
interaction score (4H678-AA): 1.05
interaction score (4H2190-AA): 1.57
interaction score (4H2944-AA): -1.12
interaction score (4H2729-AA): 0.657
interaction score (4H605-AA): 0.129
interaction score (4H3655-AA): -1.14
interaction score (4H2505-AA): -1.39
interaction score (4H2617-AA): 1.96
interaction score (4H48-AA): -0.383
interaction score (4H234-AA): -1.28
interaction score (4H993-AA): -1.48
interaction score (4H3921-AA): 2.16
interaction score (4H122-AA): 1.61
interaction score (4H3112-AA): -0.199
interaction score (4H2354-AA): 0.207
